Experimental data published in PMC7064760.

Target: HA-tagged p26 (long-distance movement protein p26 of Pea enation mosaic virus 2) (Pea enation mosaic virus 2)
Test: SDS-PAGE and Western blot; lysates of agroinfiltrated N. benthamiana leaves (10x PBS, 2% beta-mercaptoethanol), 10% SDS-PAGE, blot with anti-HA antibody; co-infiltrated with p14, GFP-3'UTR(PEMV) and U1D

## HA-tagged p26 (long-distance movement protein p26 of Pea enation mosaic virus 2) (natural protein)
  stoichiometry N: 2
